Measurements published in patent publication US20250215104A1 (WALDEN BIOSCIENCES, published 2025).

Columns and labels:
[1] = biological target: T1, cynomolgus soluble urokinase plasminogen activator receptor (suPAR) (cynomolgus, UniProt Q9GK78 23-303, limits assumed); assay: BLI (Octet) off-rate screen of scFv clones
T1 construct: Target antigen of the scFv off-rate screen; also called cynomolgus suPAR; cynomolgus uPAR
Target sequence in this assay (Q9GK78 23-303 limits assumed): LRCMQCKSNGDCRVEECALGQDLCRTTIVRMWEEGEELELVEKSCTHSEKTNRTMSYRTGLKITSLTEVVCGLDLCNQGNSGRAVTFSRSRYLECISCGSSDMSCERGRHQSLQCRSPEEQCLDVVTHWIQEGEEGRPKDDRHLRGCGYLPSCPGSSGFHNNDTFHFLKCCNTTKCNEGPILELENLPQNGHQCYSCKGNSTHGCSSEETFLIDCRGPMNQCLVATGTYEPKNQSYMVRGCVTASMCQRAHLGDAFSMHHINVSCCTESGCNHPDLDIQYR

[2] = biological target: T2, human soluble urokinase plasminogen activator receptor (suPAR) (human, UniProt Q03405 23-303, limits assumed); assay: BLI (Octet) off-rate screen of scFv clones
T2 construct: Target antigen of the scFv off-rate screen; also called hsuPAR; human suPAR
T2 sequence (Q03405 23-303 limits assumed): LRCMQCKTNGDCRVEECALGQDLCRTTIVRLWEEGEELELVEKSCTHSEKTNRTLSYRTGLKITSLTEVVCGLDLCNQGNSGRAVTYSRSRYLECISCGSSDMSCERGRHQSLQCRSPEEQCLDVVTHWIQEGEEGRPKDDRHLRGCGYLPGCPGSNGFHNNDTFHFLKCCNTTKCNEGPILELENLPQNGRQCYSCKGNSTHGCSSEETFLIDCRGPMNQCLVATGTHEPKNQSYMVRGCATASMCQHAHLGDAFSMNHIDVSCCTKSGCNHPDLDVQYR

[3] = biological target: T3, cynomolgus soluble urokinase plasminogen activator receptor (suPAR) (cynomolgus, UniProt Q9GK78 23-303, limits assumed); assay: off-rate (kdis) screen of scFv clones, biosensor (Octet)
T3 construct: Target antigen of the off-rate screen; also called cynomolgus uPAR; cynomolgus suPAR
Target sequence in this assay (Q9GK78 23-303 limits assumed): as the sequence (Q9GK78 23-303 limits assumed) above

[4] = biological target: T4, human soluble urokinase plasminogen activator receptor (suPAR) (human, UniProt Q03405 23-303, limits assumed); assay: as above
T4 construct: Target antigen of the off-rate screen; also called hsuPAR; human suPAR
T4 sequence (Q03405 23-303 limits assumed): as the sequence (Q03405 23-303 limits assumed) above

[5] = biological target: T5, human soluble urokinase plasminogen activator receptor (hsuPAR) (human, UniProt Q03405 23-303, limits assumed); assay: off-rate screen of scFv clones (kdis), Octet BLI
T5 construct: also called human suPAR; rhuPAR-His
T5 sequence (Q03405 23-303 limits assumed): as above

[6] = biological target: T6, human soluble urokinase plasminogen activator receptor (hsuPAR) (human, UniProt Q03405 23-303, limits assumed); assay: BLI (Octet) off-rate screen of scFv clones
T6 construct: Target antigen of the off-rate screen; also called human suPAR; rhuPAR-His
T6 sequence (Q03405 23-303 limits assumed): as above

Row | Binder | koff [1] | koff [2] | koff [4] | also measured
1 | suPAR_DB06_F08 (scFv, V domains shown) VH: QVQLVQSGAEVKKPGASVKVSCKASGYTFTGNYVHWVRQAPGQGLEWMGWIDHSNGNTIYDQKFQGRVTMTRDTSTSTVYMELSSLRSEDTAVYYCARGYDVDWFVYWGQGTLVTVSS VL: DIQMTQSPSSLSASVGDRVTITCSARSSVSYMYWYQQKPGKAPKLLIYRTSNLASGVPSRFSGSGSGTDFTLTISSLQPEDFATYYCQQYHSYPPTFGGGTKVEIK | 0.000537 s⁻¹ | 0.00174 s⁻¹ | – | –
2 | suPAR_DB06_E01 (scFv, V domains shown) VH: QVQLVQSGAEVKKPGASVKVSCKASGFNFKDYYIHWVRQAPGQGLEWMGWMDPSSGNTAYAQKFQGRVTMTRDTSTSTVYMELSSLRSEDTAVYYCARGYDVDWFVYWGQGTLVTVSS VL: DIQMTQSPSSLSASVGDRVTITCSARQSISYMYWYQQKPGKAPKLLIYRTSNLASGVPSRFSGSGSGTDFTLTISSLQPEDFATYYCQQYHSYPPTFGGGTKVEIK | 0.000126 s⁻¹ | 0.00483 s⁻¹ | – | –
3 | suPAR_DB01_C01 (scFv, V domains shown, screened as scFv) VH: QVQLVQSGAEVKKPGASVKVSCKASGYTFTGYYMHWVRQAPGQGLEWMGWIDHENGNTIYDQKFQGRVTMTRDTSTSTVYMELSSLRSEDTAVYYCARGYDVDWFVYWGQGTLVTVSS VL: DIQMTQSPSSLSASVGDRVTITCSARSSVSYMYWYQQKPGKAPKLLIYRTSNLASGVPSRFSGSGSGTDFTLTISSLQPEDFATYYCQQYHSYPPTFGGGTKVEIK | – | – | 0.00122 s⁻¹ | koff [3]: 0.000266 s⁻¹
4 | suPAR_DB06_G03 (scFv, V domains shown) VH: QVQLVQSGAEVKKPGASVKVSCKASGYTFSSYYMHWVRQAPGQGLEWMGWIDPEGGNTIYAQKFQGRVTMTRDTSTSTVYMELSSLRSEDTAVYYCARGYDVDWFVYWGQGTLVTVSS VL: DIQMTQSPSSLSASVGDRVTITCSARSSVSYMYWYQQKPGKAPKLLIYRTSNLASGVPSRFSGSGSGTDFTLTISSLQPEDFATYYCQQYHSYPPTFGGGTKVEIK | 0.000231 s⁻¹ | 0.00381 s⁻¹ | – | –
5 | suPAR_DB01_A05 (scFv, V domains shown, screened as scFv) VH: QVQLVQSGAEVKKPGASVKVSCKASGYTFTGYYMHWVRQAPGQGLEWMGWIDHENGNTIYDQKFQGRVTMTRDTSTSTVYMELSSLRSEDTAVYYCARGYDVDWFVYWGQGTLVTVSS VL: DIQMTQSPSSLSASVGDRVTITCRARQSVSYMYWYQQKPGKAPKLLIYRTSNLASGVPSRFSGSGSGTDFTLTISSLQPEDFATYYCQQYHSYPPTFGGGTKVEIK | – | – | 0.00174 s⁻¹ | koff [3]: 0.000326 s⁻¹
6 | suPAR_DB04_E02 (scFv, V domains shown, scFv clone from phage display) VH: QVQLVQSGAEVKKPGASVKVSCKASGYTFTSYYMHWVRQAPGQGLEWMGWIDPENGSTIYDQKFQGRVTMTRDTSTSTVYMELSSLRSEDTAVYYCARGYDVDWFVYWGQGTLVTVSS VL: DIQMTQSPSSLSASVGDRVTITCRARSSVSYMYWYQQKPGKAPKLLIYATSNLASGVPSRFSGSGSGTDFTLTISSLQPEDFATYYCQQYHSYPPTFGGGTKVEIK | – | – | – | koff [5]: 0.00497 s⁻¹
7 | suPAR_DB06_G04 (scFv, V domains shown) VH: QVQLVQSGAEVKKPGASVKVSCKASGYTFTGYYMHWVRQAPGQGLEWMGWINPEGGSTNYEQKFQGRVTMTRDTSTSTVYMELSSLRSEDTAVYYCARGYDVDWFVYWGQGTLVTVSS VL: DIQMTQSPSSLSASVGDRVTITCSARYSVSYMYWYQQKPGKAPKLLIYRTSNLASGVPSRFSGSGSGTDFTLTISSLQPEDFATYYCQQYHSYPPTFGGGTKVEIK | 0.000223 s⁻¹ | 0.00549 s⁻¹ | – | –
8 | suPAR_DB06_F09 (scFv, V domains shown) VH: QVQLVQSGAEVKKPGASVKVSCKASGYTFTTYYMHWVRQAPGQGLEWMGWIDPEGGNTIYDQKFQGRVTMTRDTSTSTVYMELSSLRSEDTAVYYCARGYDVDWFVYWGQGTLVTVSS VL: DIQMTQSPSSLSASVGDRVTITCSASQSVSYMYWYQQKPGKAPKLLIYRTSNLASGVPSRFSGSGSGTDFTLTISSLQPEDFATYYCQQYHSYPPTFGGGTKVEIK | 0.000353 s⁻¹ | 0.00302 s⁻¹ | – | –
9 | suPAR_DB01_A06 (scFv, V domains shown, screened as scFv) VH: QVQLVQSGAEVKKPGASVKVSCKASGYTFTSYYMHWVRQAPGQGLEWMGWIDHENGNTIYDQKFQGRVTMTRDTSTSTVYMELSSLRSEDTAVYYCARGYDVDWFVYWGQGTLVTVSS VL: DIQMTQSPSSLSASVGDRVTITCRARQSVSYMYWYQQKPGKAPKLLIYRTSNLASGVPSRFSGSGSGTDFTLTISSLQPEDFATYYCQQYHSYPPTFGGGTKVEIK | – | – | 0.00253 s⁻¹ | koff [3]: 4.27e-07 s⁻¹
10 | suPAR_DB01_A04 (scFv, V domains shown, screened as scFv) VH: QVQLVQSGAEVKKPGASVKVSCKASGYTFTGYYMHWVRQAPGQGLEWMGWIDHENGNTIYDQKFQGRVTMTRDTSTSTVYMELSSLRSEDTAVYYCARGYDVDWFVYWGQGTLVTVSS VL: DIQMTQSPSSLSASVGDRVTITCSASQSVSYMYWYQQKPGKAPKLLIYRTSNLASGVPSRFSGSGSGTDFTLTISSLQPEDFATYYCQQYHSYPPTFGGGTKVEIK | – | – | 0.000911 s⁻¹ | koff [3]: 0.00021 s⁻¹
11 | suPAR_DB06_G02 (scFv, V domains shown) VH: QVQLVQSGAEVKKPGASVKVSCKASGYNITDYYIHWVRQAPGQGLEWMGWIDPENGSTIYDQKFQGRVTMTRDTSTSTVYMELSSLRSEDTAVYYCARGYDVDWFVYWGQGTLVTVSS VL: DIQMTQSPSSLSASVGDRVTITCRARSSVSYMYWYQQKPGKAPKLLIYRTSNLASGVPSRFSGSGSGTDFTLTISSLQPEDFATYYCQQYHSYPPTFGGGTKVEIK | 0.000375 s⁻¹ | 0.00384 s⁻¹ | – | –
12 | suPAR_DB01_A03 (scFv, V domains shown, screened as scFv) VH: QVQLVQSGAEVKKPGASVKVSCKASGYTFTSNYIHWVRQAPGQGLEWMGWIDHENGSTSYDQKFQGRVTMTRDTSTSTVYMELSSLRSEDTAVYYCARGYDVDWFVYWGQGTLVTVSS VL: DIQMTQSPSSLSASVGDRVTITCSARSSVSYMYWYQQKPGKAPKLLIYRTSNLASGVPSRFSGSGSGTDFTLTISSLQPEDFATYYCQQYHSYPPTFGGGTKVEIK | – | – | 0.00256 s⁻¹ | koff [3]: 0.000231 s⁻¹
13 | suPAR_DB06_G06 (scFv, V domains shown) VH: QVQLVQSGAEVKKPGASVKVSCKASGFTFTAYYMHWVRQAPGQGLEWMGWIDPENGNTIYAQKFQGRVTMTRDTSTSTVYMELSSLRSEDTAVYYCARGYDVDWFVYWGQGTLVTVSS VL: DIQMTQSPSSLSASVGDRVTITCSASQSVSYMYWYQQKPGKAPKLLIYRTSNLASGVPSRFSGSGSGTDFTLTISSLQPEDFATYYCQQYHSYPPTFGGGTKVEIK | 5.28e-07 s⁻¹ | 0.00431 s⁻¹ | – | –
14 | suPAR_DB06_G01 (scFv, V domains shown) VH: QVQLVQSGAEVKKPGASVKVSCKASGDTFTGYYMHWVRQAPGQGLEWMGWIDHENGSTIYAQKFQGRVTMTRDTSTSTVYMELSSLRSEDTAVYYCARGYDVDWFVYWGQGTLVTVSS VL: DIQMTQSPSSLSASVGDRVTITCSARSSVSYMYWYQQKPGKAPKLLIYRTSNLASGVPSRFSGSGSGTDFTLTISSLQPEDFATYYCQQYHSYPPTFGGGTKVEIK | 0.000134 s⁻¹ | 0.00148 s⁻¹ | – | –
15 | suPAR_DB06_F11 (scFv, V domains shown) VH: QVQLVQSGAEVKKPGASVKVSCKASGYTFTNYYMHWVRQAPGQGLEWMGWIDHENGSTIYAQKFQGRVTMTRDTSTSTVYMELSSLRSEDTAVYYCARGYDVDWFVYWGQGTLVTVSS VL: DIQMTQSPSSLSASVGDRVTITCSARSSVSYMYWYQQKPGKAPKLLIYRTSNLQSGVPSRFSGSGSGTDFTLTISSLQPEDFATYYCQQYHSYPPTFGGGTKVEIK | 0.00059 s⁻¹ | 0.000947 s⁻¹ | – | –
16 | suPAR_DB06_F12 (scFv, V domains shown) VH: QVQLVQSGAEVKKPGASVKVSCKASGYTFSSYYMHWVRQAPGQGLEWMGWIDPENGNTIYAQKFQGRVTMTRDTSTSTVYMELSSLRSEDTAVYYCARGYDVDWFVYWGQGTLVTVSS VL: DIQMTQSPSSLSASVGDRVTITCRARQSVSYMYWYQQKPGKAPKLLIYRTSNLASGVPSRFSGSGSGTDFTLTISSLQPEDFATYYCQQYHSYPPTFGGGTKVEIK | 0.000195 s⁻¹ | 0.00426 s⁻¹ | – | –
17 | suPAR_DB06_C05 (scFv, V domains shown) VH: QVQLVQSGAEVKKPGASVKVSCKASGGTFSSYAISWVRQAPGQGLEWMGVIDPSGGTTDYAQKFQGRVTMTRDTSTSTVYMELSSLRSEDTAVYYCARGYDVDWFVYWGQGTLVTVSS VL: DIQMTQSPSSLSASVGDRVTITCRTSQSISSFLNWYQQKPGKAPKLLIYDVSHLESGVPSRFSGSGSGTDFTLTISSLQPEDFATYYCQQYHSYPPTFGGGTKVEIK | 0.0623 s⁻¹ | 0.373 s⁻¹ | – | –
18 | suPAR_DB01_A02 (scFv, V domains shown, screened as scFv) VH: EVQLEESGAELVRPGALVKLSCKASGFNIKDYYIHWVKQRPEQGLEWIGWIDHENGNTIYDPKFQGKASITLDTSSNTAYLQLNSLTSEDTAVYYCARGYDVDWFVYWGQGTLVTVSS VL: QIVLTQSPAIMSASPGEKVTIYCSARSSVSYMYWYQQKPGSSPKPWIYRTSNLASGVPARFSGSGSGTSYSLTISSMEAEDAATYYCQQYHSYPPTFGGGTKLEIK | – | – | 3.54e-07 s⁻¹ | –
19 | suPAR_DB03_A12 (scFv, V domains shown, screened as scFv) VH: QVQLVQSGAEVKKPGASVKVSCKASGYTFSRYYMHWVRQAPGQGLEWIGWMNPNTGDTGYAQKFQGRVTMTRDTSTSTVYMELSSLRSEDTAVYYCARGYDVDFFVYWGQGTLVTVSS VL: DIQMTQSPSSLSASVGDRVTITCRASQGISGWLAWYQQKPGKAPKLLIYDASSLQSGVPSRFSGSGSGTDFTLTISSLQPEDFATYYCQQSYSDPLTFGGGTKVEIK | – | – | – | koff [6]: 0.0544 s⁻¹
